Target: T1, human transferrin receptor-Fc tag standard (human, UniProt P02786 89-760, limits assumed)
T1 construct: Reagent coated on the ELISA plate at 2 ug/ml; also called hTfR; hTER; not shown: Fc tag
Assay: ELISA on plate-coated human TfR-Fc with anti-His detection; Kd calculated from an expected saturation point, since the curve was not saturated at 10000 nM
Method: Then, it was washed 3 times with 200 μl of PBST (PBS+Tween0.05%). An antibody (mouse anti-His tag antibody, Hisprobe) that specifically binds to the hexa-His tag was diluted 1/1000 in PBST, and the diluted solution was treated by 100 μl at room temperature for 1 hour.
Then, it was washed 3 times with 200 μl of PBST (PBS+Tween0.05%). TMB solution expressing coloration by reacting with HRP was treated by 100 μl at room temperature for 15 minutes. After 50 μl of 1M H₂SO₄ solution was treated, optical density was measured with TECAN at a wavelength of 450 nm. This was calculated using the Langmuir equation (Table 4, FIGS. 4 to 6).
FIG. 7 illustrates results of evaluation/comparison of the binding force of huHF_mutant1-dual and huHF_mutant2-dual to hTfR.

T1 sequence (P02786 89-760 limits assumed): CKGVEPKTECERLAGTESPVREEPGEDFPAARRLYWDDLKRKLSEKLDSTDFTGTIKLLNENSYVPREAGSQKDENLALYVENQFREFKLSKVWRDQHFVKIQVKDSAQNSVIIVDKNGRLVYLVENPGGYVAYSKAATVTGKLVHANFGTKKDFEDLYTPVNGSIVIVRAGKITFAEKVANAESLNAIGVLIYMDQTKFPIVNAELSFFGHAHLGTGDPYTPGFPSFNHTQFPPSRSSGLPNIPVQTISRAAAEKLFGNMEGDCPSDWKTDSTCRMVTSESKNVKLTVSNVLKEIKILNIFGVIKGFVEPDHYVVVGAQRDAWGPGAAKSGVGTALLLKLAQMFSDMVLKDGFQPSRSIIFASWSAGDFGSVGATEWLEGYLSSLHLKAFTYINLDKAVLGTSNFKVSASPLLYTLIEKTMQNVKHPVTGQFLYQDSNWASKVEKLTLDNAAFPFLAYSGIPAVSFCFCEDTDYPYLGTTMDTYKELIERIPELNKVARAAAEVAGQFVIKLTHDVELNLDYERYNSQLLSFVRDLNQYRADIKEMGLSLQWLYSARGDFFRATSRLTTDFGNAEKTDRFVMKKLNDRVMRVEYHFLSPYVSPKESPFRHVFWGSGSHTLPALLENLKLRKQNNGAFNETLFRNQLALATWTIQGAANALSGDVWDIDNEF

- Kd: ~4.4 µM
B1: huHF_Mutant2-dual (designed binder)
chain: MTTASTSQVRQNYHAASEAAINAQINLELYASYVYLSMSYYFDRDDVALKNFAKYFLHQSHEEREHAEKLMKLQNQRGGRIALADIQKPDCDDGGSYGSLYAFDIWESGLNAMECALHLEKNVNQSLLALHALATAKNDPHLCDFIETHYLNEQVKAIKELGDHVTNLRKMGAPESGLAEYLFDKHTLGDSDNESMPSFITLASLSTWEGYFDF
notes: Self-assembled ferritin nanoparticle of 24 monomers
